The series relates to dCas9 (EnGen Spy dCas9, SNAP-tag) (Streptococcus pyogenes). In words: single-molecule fluorescence co-localization. The following applies: NEBuffer r3.1 adjusted to 1 mM MgCl2; single-molecule: 17 nM YOYO-1, 1 ng DNA, about 1 nM dCas9-RNA, 15 min at 37 C; EMSA: 1 mM DTT, 1% agarose 1x TAE gel. In general terms: Mobility shift assays separate free from complexed probe on a gel.

“AAV2-ITR crRNA:tracrRNA-ATTO550 guide + pAAV-U6-sgRNA-CMV-GFP plasmid (positive)” came in with a binding signal (% co-localization) of 51.

Turning to “AAV2-ITR crRNA:tracrRNA-ATTO550 guide + plasmid lacking the target site (negative)”, the binding signal (% co-localization) was found to be 23.
